These results are taken from patent US20070092518A1 (published 2007).

Changes are numbered by the printed parent chain.

B1: SEQ ID NO 57 (Fab, V domains shown)
VH: EVQLTESGGGLVQPGGSLRLSCAASGFIFSNHWMNWVRQAPGKGLEWIGEIRSKSSYSATHYAESVKGRFIISRDDNGTSLYLEMNSLKTEDTAEYYCAQNYYGSTYDYWGQGTLVTVS
VL: EIVLTQSPDFQSVTPKEKVTITCRASQFVGSSIHWYQQKPDQSPKLLIKYASESMSGVPSRFSGSGSGTDFTFTISSLEAEDAATYYCQQSHSWPFTFGPGTKVDIK
notes: Fab, E. coli lysate
B2: SEQ ID NO 81 (Fab, V domains shown)
VH: EVQLVESGGGLVQPGGSLRLSCRASGSTFSNHYMNWVRQAPGKGLEWIGEIRSKSINSATSYAESVKGRFIISRDGNGTDLTLEMNSLKTEDTAEYYCAQNYYGSTYDYWGQGTLVTVS
VL: B1 VL
notes: Fab, E. coli lysate
B3: SEQ ID NO 64 (Fab, V domains shown)
VH: B1 VH with G26Q, I28T, S56I, S58G, G78K, Q100R, Y107P
VL: B1 VL
notes: Fab, E. coli lysate
B4: SEQ ID NO 72 (Fab, V domains shown)
VH: B1 VH with A23R, F27S, W33Y, S56I, D76G
VL: B1 VL
notes: Fab, E. coli lysate
B5: SEQ ID NO 74 (Fab, V domains shown)
VH: B1 VH with F27S, I28T, H61S, G78K, T79N, Y82T, Q100R, Y107P
VL: B1 VL
notes: Fab, E. coli lysate
B6: SEQ ID NO 67 (Fab, V domains shown)
VH: B2 VH with V5T, S27F, N57Y, S61H, G78K, Q100R, Y107P
VL: B1 VL
notes: Fab, E. coli lysate
B7: SEQ ID NO 68 (Fab, V domains shown)
VH: B1 VH with A23R, G26Q, S56I, Y57N, G78K, T79N, S80D, Y82T, Q100R
VL: B1 VL
notes: Fab, E. coli lysate
B8: SEQ ID NO 77 (Fab, V domains shown)
VH: B2 VH with R23A, N57Y, G76D, T79N, D80S, T82Y
VL: B1 VL
notes: Fab, E. coli lysate
B9: SEQ ID NO 102 (Fab, V domains shown)
VH: B1 VH with T5V, A23R, S56I, Y57N, S58G, G78K, Q100R
VL: B1 VL
notes: Fab, E. coli lysate
B10: SEQ ID NO 85 (Fab, V domains shown)
VH: B1 VH with A23R, Y57N, S58G, H61S, D76G, Y82T
VL: B1 VL
notes: Fab, E. coli lysate
B11: SEQ ID NO 66 (Fab, V domains shown)
VH: B2 VH with V5T, S27F, N57Y, S61H, G76D, G78K, Q100R
VL: B1 VL
notes: Fab, E. coli lysate
B12: SEQ ID NO 84 (Fab, V domains shown)
VH: B1 VH with T5V, G26Q, F27S, I28T, D76G, G78K, T79N, S80D, Q100R
VL: B1 VL
notes: Fab, E. coli lysate
B13: SEQ ID NO 94 (Fab, V domains shown)
VH: B1 VH with T5V, A23R, F27S, S56I, Y57N, S58G, Q100R
VL: B1 VL
notes: Fab, E. coli lysate
B14: SEQ ID NO 98 (Fab, V domains shown)
VH: B1 VH with A23R, I28T, Y57N, S58G, D76G, G78K, S80D, Q100R, Y107P
VL: B1 VL
notes: Fab, E. coli lysate
B15: SEQ ID NO 97 (Fab, V domains shown)
VH: B2 VH with V5T, Y33W, I56S, S58G, G76D, T82Y
VL: B1 VL
notes: Fab, E. coli lysate
B16: SEQ ID NO 83 (Fab, V domains shown)
VH: B1 VH with A23R, W33Y, S56I, Y57N, S58G, H61S, T79N, Q100R, Y107P
VL: B1 VL
notes: Fab, E. coli lysate
B17: SEQ ID NO 93 (Fab, V domains shown)
VH: B1 VH with A23R, I28T, W33Y, S58G, S80D, Y107P
VL: B1 VL
notes: Fab, E. coli lysate
B18: SEQ ID NO 101 (Fab, V domains shown)
VH: B2 VH with S27F, I56S, G76D, T79N, D80S, T82Y, Y107P
VL: B1 VL
notes: Fab, E. coli lysate
B19: SEQ ID NO 73 (Fab, V domains shown)
VH: B2 VH with T28I, I56S, N57Y, S58G, G76D, G78K, T79N, Y107P
VL: B1 VL
notes: Fab, E. coli lysate
B20: SEQ ID NO 69 (Fab, V domains shown)
VH: B1 VH with T5V, A23R, G26Q, I28T, Y57N, D76G, T79N, Q100R
VL: B1 VL
notes: Fab, E. coli lysate
B21: SEQ ID NO 79 (Fab, V domains shown)
VH: B2 VH with R23A, G26Q, T28I, N57Y, S58G, S61H, G78K, T79N, Q100R, Y107P
VL: B1 VL
notes: Fab, E. coli lysate
B22: SEQ ID NO 100 (Fab, V domains shown)
VH: B1 VH with A23R, G26Q, W33Y, S56I, Y57N, S58G, G78K, S80D, Q100R
VL: B1 VL
notes: Fab, E. coli lysate
B23: SEQ ID NO 76 (Fab, V domains shown)
VH: B1 VH with A23R, W33Y, S56I, Y57N, S58G, Q100R
VL: B1 VL
notes: Fab, E. coli lysate
B24: SEQ ID NO 88 (Fab, V domains shown)
VH: B2 VH with R23A, S27F, Y33W, I56S, G78K, T79N, Q100R
VL: B1 VL
notes: Fab, E. coli lysate
B25: SEQ ID NO 89 (Fab, V domains shown)
VH: B2 VH with G26Q, S27F, S58G, G76D, T82Y, Q100R
VL: B1 VL
notes: Fab, E. coli lysate
B26: SEQ ID NO 95 (Fab, V domains shown)
VH: B2 VH with V5T, I56S, G76D, G78K, D80S, T82Y, Q100R
VL: B1 VL
notes: Fab, E. coli lysate
B27: SEQ ID NO 61 (Fab, V domains shown)
VH: B2 VH with S27F, T28I, N57Y, S58G, S61H, T79N, T82Y, Q100R
VL: B1 VL
notes: Fab, E. coli lysate
B28: SEQ ID NO 58 (Fab, V domains shown)
VH: B1 VH with G26Q, Y57N, H61S, T79N, S80D
VL: B1 VL
notes: Fab, E. coli lysate
B29: SEQ ID NO 99 (Fab, V domains shown)
VH: B1 VH with T5V, F27S, W33Y, Y57N, S58G, G78K, T79N
VL: B1 VL
notes: Fab, E. coli lysate
B30: SEQ ID NO 75 (Fab, V domains shown)
VH: B1 VH with T5V, A23R, I28T, S56I, G78K, T79N, Y82T, Q100R, Y107P
VL: B1 VL
notes: Fab, E. coli lysate
B31: SEQ ID NO 92 (Fab, V domains shown)
VH: B2 VH with R23A, T28I, Y33W, I56S, S61H, G78K, T79N, Q100R
VL: B1 VL
notes: Fab, E. coli lysate
B32: SEQ ID NO 65 (Fab, V domains shown)
VH: B1 VH with T5V, A23R, S56I, S58G, G78K, T79N
VL: B1 VL
notes: Fab, E. coli lysate
B33: SEQ ID NO 91 (Fab, V domains shown)
VH: B2 VH with V5T, R23A, G26Q, T28I, S61H, G78K, T79N, T82Y, Q100R, Y107P
VL: B1 VL
notes: Fab, E. coli lysate
B34: SEQ ID NO 104 (Fab, V domains shown)
VH: B1 VH with A23R, G26Q, W33Y, S56I, Y57N, G78K, T79N, S80D, Y107P
VL: B1 VL
notes: Fab, E. coli lysate
B35: SEQ ID NO 105 (Fab, V domains shown)
VH: B1 VH with W33Y, Y57N, S58G, H61S, T79N, Y82T, Y107P
VL: B1 VL
notes: Fab, E. coli lysate
B36: SEQ ID NO 87 (Fab, V domains shown)
VH: B1 VH with T5V, I28T, Y57N, D76G, G78K, Q100R
VL: B1 VL
notes: Fab, E. coli lysate

For this experiment, the target named is T1, human tumor necrosis factor-α (rHuTNF-alpha, Biosource) (human, UniProt P01375 77-233).
T1 construct: Bought recombinant protein coated on ELISA plates; The TNFα of the Biacore assay is not described further; also called TNFα; human TNFα
T1 sequence (P01375 77-233 limits assumed): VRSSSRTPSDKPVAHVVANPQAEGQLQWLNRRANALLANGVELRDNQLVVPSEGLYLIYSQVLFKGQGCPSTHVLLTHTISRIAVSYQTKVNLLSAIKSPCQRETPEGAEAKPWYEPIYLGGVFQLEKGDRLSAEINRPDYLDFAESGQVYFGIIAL
Description: solid-phase ELISA, Fab lysate on coated rHuTNF-alpha. Here is the method:
The Fab libraries were cloned into pTrcHis2A (Cat. No. V365-20, Invitrogen, Carlsbad, Calif.). Proteins were expressed in E. coli and solid-phase ELISA was used to assess Fab binding to human TNFα. Briefly, 96-well plates were coated overnight at 4° C. with 1 μg/ml of rHuTNF-alpha (Biosource, Camarillo, Calif.) in Carbonate-bicarbonate buffer, pH9.4. After washing in PBS with 0.05% (w/v) Tween-20, the wells were blocked with 1% (w/v) BSA in PBS for 1 hour at room temperature. After washing, plates were incubated with transformed E. coli cell lysate diluted in the assay buffer (1% BSA and 0.05% Tween-20 in 10 mM PBS) for 2 hours at room temperature. Various concentrations of infliximab (0.5, 1 and 2 ng/ml) were used as positive anti-Human Kappa Light Chain Biotin/anti-penta-His Biotin control. Plates were washed and incubated with ImmunoPure Goat Anti-Human Kappa Chain, Biotin Conjugated (Cat. No. 31780, Pierce Biotechnology, Rockford, Ill.) and Penta-His Biotin Conjugate (Cat. No. 34440, QIAGEN, Valencia, Calif.) diluted 1:2000 in the assay buffer for 1 hour at room temperature. Following another washing step, plates were probed for 1 hour at room temperature with 100 μL/well of Streptavidin POD (Cat. No. 1089153, Roche Applied Science, Indianapolis, Ind.) diluted 1:4000 in the assay buffer. Plates were further washed and then incubated with 3,3′,5,5′-tetramentylbenzidine (TMB, Cat. No. 34028, Pierce Biotechnology) for 30 minutes. Substrate development was stopped by addition of 100 μL/well TMB Stop Solution (Cat. No. 50-85-05, KPL, Gaithersburg, Md.) and the absorbance was measured at 450 nm via an automated plate spectrophotometer.
As for B1, the binding result is “binds”.

As for B2, the binding result is recorded as “binds”. In the case of B3, the binding result was “binds”.

With B4, the binding result is on record as “binds”. To B5 belongs “binds”; to B6, “binds”; to B7, “binds”. As to B8, the binding result is recorded as “binds”. With B9, the binding result is reported as “binds”. To B10 belongs “binds”; to B11, “binds”.

With B12, the binding result was “binds”. To B13 belongs “binds”; to B14, “binds”. To B15 belongs “binds”; to B16, “binds”. On to B17, for which the binding result is reported as “binds”.

As for B18, the binding result is “binds”. Turning to B19, the binding result is “binds”. In the case of B20, the binding result is “binds”. Turning to B21, the binding result is reported as “binds”.

B22: the binding result is given as “binds”. With B23, the binding result is “binds”. To B24 belongs “binds”; to B25, “binds”; to B26, “binds”. B27: the binding result is on record as “binds”. Regarding B28, the binding result is “binds”. For B29, the binding result is recorded as “binds”. As for B30, the binding result is “binds”.

For the molecule B31, the binding result is “binds”. On to B32, for which the binding result is given as “binds”. Turning to B33, the binding result is recorded as “binds”.

Take B34: the binding result was “binds”. In the case of B35, the binding result is recorded as “binds”.

For B36, the binding result is “binds”.
